Drawing on the supplement of paper PMC12042874, this text covers amyloid nucleation score for 54 substances.

± gives the uncertainty stated by the source.

The series in a line: amyloid nucleation score (Sup35N fusion, yeast selection) (log enrichment); library NNK3; higher = more nucleation; inactive = no reads after selection. The method, boiled down: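 Three technical output replicates were used for random libraries. Psi-negative yeast expressing peptides of 20 random codons fused to Sup35N were induced with 100 μM copper sulfate for 24 hours and grown 7 days at 30°C on medium lacking adenine and uracil, and input and output plasmid inserts were Illumina-sequenced, excluding sequences with under 100 input reads. The nucleation score is the DiMSum log enrichment of output over input reads, centred on the mode score of non-aggregating sequences.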
Turning to RARLMITYYLTDQASDNRYV, the amyloid nucleation score was determined as 0.799 ± 0.28. On to RCFYKRYNYLS, for which the amyloid nucleation score result is “inactive”.

RCIMRYCAKALCKVICSQWL: the amyloid nucleation score entry is “inactive”.

Turning to RCIVSRLTWGTILISFLQNR, the amyloid nucleation score result is “inactive”.

RCIYTMVWVTNVNMVRRTGA registered an amyloid nucleation score of 1.69 ± 0.084.

For RCQATWWNIIFFAIGDCDLL, the amyloid nucleation score entry is “inactive”. The value for RCRDGTILALC was “inactive”; that for RCREFERKLALSLQSVGS was “inactive”. For RCSDYHMR, the amyloid nucleation score result was “inactive”. Then RCWILISANHQKDFVSHIFY, with 0.627 ± 0.36. As for RCYCCPRTDSLGMG, the amyloid nucleation score entry was “inactive”. For RDCTMYNTYFIWNIYPG, the amyloid nucleation score was 3.42 ± 0.07. Then RDFNMDTVRAVWISQILNSI, with “inactive”; and RDGTYRWSDLKTICLIRVSW, with “inactive”; and RDRCISFEYAVQTCHYECRP, with -0.294 ± 0.74. Then RDRSVKRVVHSGFRFSIGEA, with “inactive”; and RDSVNFTSNCCSVGFNTFNS, with 2.67 ± 0.053. On to RDTYQSSCDWQW, for which the amyloid nucleation score is 0.077 ± 0.87.

For the substance RDYAFNPMFCCATNAKFMKG, the amyloid nucleation score was found to be 1.96 ± 0.06. For REAASQIHSEDKMGGWYHRL, the amyloid nucleation score result is “inactive”. As to REAYDLFSCIDYVLNFMFNY, the amyloid nucleation score result was “inactive”.

With RECWMKPNLNSNTYSEMICE, the amyloid nucleation score is 0.011 ± 0.81.

Regarding REDWRLFNCTTFSAPSSC, the amyloid nucleation score is -0.217 ± 0.66. Turning to REKDSAAHVVE, the amyloid nucleation score entry is “inactive”. For the substance RELTRRTYAVANYRLSMSRL, the amyloid nucleation score result is “inactive”. Then RELYFSYDSLDYLGMRVWML, with “inactive”. As to RERIFRICVFRMTSDKMTAT, the amyloid nucleation score result was “inactive”. Then RERPRD, with “inactive”; and RFCAFERG, with “inactive”; and RFHVLINCFSAAGRGNPGSR, with 1.69 ± 0.068. Turning to RFLLLRSCMSIDWRVGLEIF, the amyloid nucleation score entry was “inactive”. Consider RFLYRYG, for which the amyloid nucleation score entry was “inactive”. The value for RFMFSLFMNEGNMLHMLRRV was “inactive”.

For RFMQWGIFS, the amyloid nucleation score entry was “inactive”.

In the case of RFNAFSPSPRWPRHFKTMYY, the amyloid nucleation score result was “inactive”. Turning to RFQYLNYCMFMVRCGHYDTS, the amyloid nucleation score entry is “inactive”. For RFRMHIIYKRKGIACVRSTS, the amyloid nucleation score result is “inactive”.

Turning to RFRSRS, the amyloid nucleation score was -0.02 ± 1.1.

On to RFSIPMLQRCLWLTGPVCPI, for which the amyloid nucleation score result is “inactive”.

RFSWWRW had an amyloid nucleation score of 1.24 ± 0.14. In the case of RFVGSGCSGWCSRARDLWWL, the amyloid nucleation score entry was “inactive”.

Regarding RFVTRCREDSVTLKHG, the amyloid nucleation score result is “inactive”.

RFWCLVVCTRLVHMENGRCS: the amyloid nucleation score result is “inactive”. Then RFYGYTLY, with “inactive”.

As for RGCTGIKPLPTSWACAFSTS, the amyloid nucleation score entry was “inactive”. Then RGDMMGLSTENTLLLYDVGR, with “inactive”; and RGDVWLELKGLFAIFCYSEL, with 2.96 ± 0.062; and RGICGNQLCRVMPLLNPHGC, with “inactive”.

As to RGIWGLSLYGVISNVSGLSK, the amyloid nucleation score is -0.103 ± 0.43. Then RGMKDCCTRWALRYWDVSVL, with “inactive”; and RGNKTI, with “inactive”. The value for RGRIVLNQRLNCDDEDGISE was “inactive”. Then RGSKQLDWHSYYNRVLDIGR, with -0.296 ± 0.88. Regarding RGSPFSWVGPSDRSWSPKFP, the amyloid nucleation score result is “inactive”.
